Assay: yeast display, Sf9 membrane polyspecificity reagent, FACS + sequencing; frameworks hold sequencing errors
How it was run: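 Galactose induction of a Saccharomyces cerevisiae BJ5465 synthetic nanobody display library ran 36–48 hours. The cells were then stained for 1 hour at 4 °C with 10% biotinylated, detergent-solubilized Sf9 membrane reagent, pulled down on streptavidin microbeads and FACS-sorted into low and high (top ~1%) gates on expression and reagent-binding fluorescence. Labels for polyreactivity follow the gate of origin.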

Sequence	polyreactivity (PSR sort gate)
QVQLVESGGGLVQAGGSLRLSCAASGFIFRWYAMGWYRQAPGKERELVAAISRSGDSTYYADSVKGRFTISRDNAKNTVYLQKNSLKPEDTAVYYCAADDRYYTYGYDYWGQGTQVTVSS	low polyreactivity
QVQLVESGGGLVQAGGSLRLSCAASGLIFDANAMGWYRLAPVKERELVAAITGSGGRTYSADSVKGRFTISRDTANYTVYCQMNCLKPEATGVYYCAASSKRKVLYNYWGQGTQVTVSS	high polyreactivity
QVQLVESGGGLVQAGGSLRLSCAASGGIFRGYAMGWYRQAPGKERELVATITFSGTSTNYADSVKGRFTISRDNAKNTVYFQMNRLKPEDTAVYYFAAGPVFGGGGYDYWGKGTQVTVSS	low polyreactivity
QVQLVDSRGGLVQAGGSLRLSCAASGFTFWYYAMGWYRQAPGKERELVAAITNGGGSKYYADSVKGRFTISRDNAKNTFYLQMNSLKPEDTAVFYCAKDGHSYYPWEYDYWGQGTQVTVSS	low polyreactivity
QVQLVESGGGLVQAGGSLRLSCAASGRTFRRYAMGWYRQAPGKERELVAAITNRGASTYYADSVKGRFTISRDNAKNTVYLQMNSLKPEDTAVYFCNTDPVSGLVWKGTEYDYWGQGTQVTVSS	low polyreactivity
QVQLVESGAGLVQAGGSLPLSCAASGFTFTIYAMGWYRQAPGKERELVATISGRAGRTYYADSVKGRFTISRDNAKNTVYLQMNSMKPEDTAGYYCNAGQWRYTGLYYYWGQGTQVTVSS	high polyreactivity
QVQLVESGGGLVQAGGSLRLSCAASGRIFLWYAMGWYRKAPGKERELVADISSNGGSTRYADSVKGRFAISRDNEKNTVYLQMNILKPEDTAVYYCNADVHWNRYRYGGNGYGYWGQGTQVTVSS	low polyreactivity
QVQLVESGGGLVQAGGSLRLSCAASGIIFDEYAMGWYRQAPGKEMELVAGITIGGSTNYADSVKGRLTISRDNAKNTVYLQMNSLKPEDTAVYYCDYLGQGTQVTVSS	low polyreactivity
QVQLVESGGGLVQAGGSLRLSCAASGSTFTSYAMGWYRQAPGKERELVAAISRRGTSTYYADSVKGRFTISRDNAKNTVYLQMNSLKPEDTAVYYCAADGYYWEYYYWGQVTQVTVSS	high polyreactivity
QVQLVESGGGLVQAGGSLRLTCAASGFIFRYYAMGWYRPATGKEMELVAAISRGGSTNYADSVKGRFTISRDNAKYTVYLQMNSLKPEDTAVYYCASRKGRSKQGYYYWGQGTQVTVSS	high polyreactivity
QVQLVESGGGLVQAGGSLRLSCAASGIILVRNAMGWYRQAPGKERELVAAISKSGGRTYYADSVKGRFTISRDNAKNTVYLQMNSLKPEDTAVYYCNVLTYHDFDYWGQGSQVTVSS	high polyreactivity
QVQLVESGGGLVQAGGSLRLSCAASGRIFRINAMGWYRQAPGKERELVATISSGGGSTYADSVKGRFTISRDNAKTTVYLQMNSLKPEDTAVYYCAARSRIGRYTYDYWGQGTQVTVSS	high polyreactivity
QVQLVESGGGLVQAGGSLRLSCAASGFTFGPYAMGWYRQAPGKERELVAAIRGSGSSTYYADSVKGRFTISRDNAKNTVYLQMNSLKPEDTAVYYCAAKRRYGTDGYWGQGTQVTVSS	high polyreactivity
QVHLVESGGGLVHAGGSLRLSCAASGRSFTFYDMGWYRQAPGKERELVAAITQDSGSSTYYADSVKGRFTISRDNAKNTVYLQMNSLKPEDTAVYYCNADYPGFSSQNDYWGQGTHVTVSS	low polyreactivity
QVQLVESGGGLDQAGGSHRLSCAASGSTFYPYAMRWYRQAPGKERELVAGITVIDGSTYYADSVKGRFTMSRDNAKNPVYFQMNSLKPEDTAVYYCAVDGPNQVQEYGYWGQGTQVTVSS	low polyreactivity
QVQLVESGGGLVQAGGSLRLSCPASGSTYLIYAMGWYRQAPGKERELVARITSTGSTYYADSVKRRFTISRDNAMNTVYLHMNSLKPEDTAVYYCNAAGYQYYWHYYWGQGTQVTVSS	low polyreactivity
QVQLVESGGGLVQAGGSLRLSCAASGNTFWDNAMGWYRQAPGKERELVAAIRWSTGSTHYADSVKGRFTISRDNAKNTVYLQMNSLKPEDTAVYYCAATDYYYYRDKYYGYDYWGQGTQVTVSS	low polyreactivity
QVQLVESGGGLVQAGGSLRLSCAASGRIFVGYAMGWYRQAPGKERELVAAISSDGGSTYYADSVKGRFTISRDNAKNTVYLQMNSLKPEDTAVYYCNAYYGRFPYYADDYWGQGTQVTVSS	low polyreactivity
QFQLVESGVGLVQAGGSLRLSCAASGRIFTNYAMGWYRQAPGKERELVASINYSGATRNYADSVKGRFTISRDNAKNTVYLQMNSLKPEDTAVYYCNADIYPDLYGSTNYDFNYWGQGTQVTVSS	low polyreactivity
QVQLVESGGGLVQAGGSLRLSCAASGSTFGHNAMGWYRQAPGKERELVAAIDSGDGTTYADSVKGRFTISRDNAKNTVYLQMNSLKPEDSAVYYWNVDLTTVGLWYYYRPGYDFWGQGTQVTVSS	low polyreactivity
QDQLVESGGGIVQAGGSLRLSCAASGSTFWHNVMGWYRQAPGKERELVAAISTAGSSTYYADSVKGRFTISRDHAKNTVYLQMNSLKPEDTAVYYCAAQWPKSKYGYWGQGTQVTVSS	high polyreactivity
QVQLVESGGGLVQAGGSLRLSCAASGGTFPGYTMGWYRQAPGKERELVAAISRGGRTYYADSVKGRFTISRDNAKNTVYLQMNSLKPEDTAVYYCNAVTKYGNFDYWGQGTQVTVSS	high polyreactivity

Sequence	polyreactivity (PSR sort gate)
QVQLVESGGGLVQAGGSLRLSCAASGFIFYRYAMGWYRQAPGKERELVAAISRSGGTTYYADSVKGRFTISRDNAKNTVYLQMNSLKPEDTAVYYCNVKRGTIGGYYYWGQGTQVTVSS	high polyreactivity
QVQLVESGGGLVQAGGSLRLSCAASGSTFNSYAMGWYRQAPGKERELVAAITSSVGSTYYADSVKGRFTISRDNAKYTVYLQMNSLKPEDTAVYYCAADYFSYWYFSGYDYWGQGTQVTVSS	low polyreactivity
QVQLVESGGGLVQAGGSLRLSCAASGSTIGSYAMRLSRQAPGTERELVAVITSDGRTNYADSVKGRFTISRDNAKNTVYLQMNSLKPEDTAVYYCAAGYGRWRYGTGVYDNYYYWGQGTQVTVSS	low polyreactivity
QVQLVESGGGLVQAGGSLRLSCAASGYIFSYNAMGWYRQAPGKERELVAAMTASGGGTYYADSVKGRFTISRDNAKNTVYLQMNSLKPEDTAVYYCAADFNDHYYWYGQDYDYWGQGTQVTVSS	low polyreactivity
QVQLLESGVGLVQAGGTLRLSCAASGRTFYRNAMGWYRQATGKEREMVAAISQSGGSTYYADSVKGRFTISRDNAKNTVYLQMNSLKPEDTAVYYCAAGNSRRVGMDYWGQGTQVTVSS	high polyreactivity
QVQLVESGGGLVQAGGSLRLSCAASGRTFGENTMGWYRQAPGKERELVASITWSGDSTFYADSVKGRFTISRDNAKNTVYLQMNSLKPEDTAVYYCARDDYYGSYGYDYWGQGTQVTVSS	low polyreactivity
QVQLVESGGGLVQAGGSLRLSCAASGRTFYPYAMGWYRQAPGKERELVAAISSSGGSTYYADSVKGRFTISRDNAKNTVYLQMNSLKPEDTAVYYCAAAVYLQYLDDPTYGYWGQGTQVTVSS	high polyreactivity
QVQLVESGGGLLQAGGSLRLSCAASGRIFGSYAMGWYRQAPGKERELVAGIRSVGSTNYADSVKGRFTISRDNAKNTVYLQMNSLKPEDTAVYYCAARLWHLSYAGQGGDYWGQGTQVTVSS	low polyreactivity
QVQLVESGGGLVQAGGSLRLSCAASGRMFTHNVMGWYRQAPGKERELVAAISASGGSTYYADSVKGRFTISRDNAKNTVYLQMNSLKPEDTAVYYCNAGDYRTFYRRFDYWGQGTQVTVSS	low polyreactivity
QVQLVESGGGLVQAGGSLRLSCDASGIIFAWYAMGWSRQAPGKERELVAAISSDGITKDADSVKGRFTISRDNAKNTVYLQMNSLKPEDTAVYYCAAGLGWGLYWIDSYEYWGQGTQVTVSS	low polyreactivity
QVQLVESGGGLVQAGGSLRLTCAASGRTFYVNAMGWYRQAPGKEREFVAAISRRGGSTYYADSVKGRFTISRDNAKNTVYLQMNCLKPEDTAVYYCNAAYSSRYDYWGQGTQVTVSS	high polyreactivity
QVQLVDSGGGLVQAGGSLRLSCAASGFTSTRYSMGWYREAPGKERELVAAISYGGGDTYYADSVKGRFTISRDNPKNTVYLQMNSLKPEDTAVYYCNARGRDRKSERRAFDYWGQGTQVTVSS	high polyreactivity
QVQLVESGGGLVQAGGSLRLSCAASGLIFGYNAMGWYRQAPGKERELVAGISSGGSTNYADSVKGRFTISRDNAKNTVYLQMNSLKPEDTAVYYCNADGYLAERFVIRLDEYRDYDYWGQGTQVTVSS	low polyreactivity
QVQLVESGGGLVQAGGSLRLTSAASGSIFQPYAMGWYRQAPVKERELVASIRGSAGSTHYADSVKGRFTISRDNAKNTVYLQMNSLKPEDTAVYYCAARAVASHFSPRLYGYWGQGTQVTVSS	high polyreactivity
QVQLVESGGGLVQAGGSIRLSCAASGNTFRWYAMGWYRQAPGKEREFVAAISSSGGSTYYADSVKGRFTISRDNAKNTVYLQMNSLKPEDTAVYYCTAASVTRHVSFATDYEYWGQGTQVTVSS	high polyreactivity
QVQLVESGGGLVQAGGSLRLSCAASGSIFGGYAMGWYRQAPGKERELVAAISSGGSTYYADSVKGRFTISRDNAKNTVYLQMNSLKPEDTAVYYCATSTFAYRRNSYYYTRPRFGYWGQGTQVTVSS	high polyreactivity
QVQLVESGGGLVQAGGSLRLSCAASGFIFSGNAMGWYRQAPGKERELVAAITRGGITYYADSVKGRFTISRDNAKNTVYLQMNSLKPEDTAVYYCNALGFGSNYDYWGQGTQVTVSS	high polyreactivity
QVQLVESGGGLVQAGGSLRLSCAASGSTFFTNTMGWYRQAPGKERELVAAISKSGGSTYYADSVKGRFTISRDNAKNTVYLQMNSLKPEDTAVYYCAASDRYGGRDYWGQGTQVTVSS	high polyreactivity
QVQLVESGGGLVQAGGSLRLSCAASGLIFYDNMGWYRQAPGKERELVAAISSSGGSTSYADSVKGRFTISRDNAKNTVYLQMNSLKPVDTAVYYCAADSYPAYLGFVGFDYWGQGTQVTVSS	low polyreactivity
QVQLVESGGGLVQAGGSLRLSCAASGRTFTHNVMGWYRQAPGKERELVAGISSTGGSTYYADSVKGRFTISRDNAKNTVYLQMNSLKPEDTAVYYCAVIGYHYSAISPPSQTRQGYDYWGQGTQVTLSS	low polyreactivity
QVQLVESGGGLVQAGGSLRLSCASSGLIFPFYDMGWYRQAPGKERELVAAMTRSGDSTYYADSVKGRFTISRDNAKNTVYLQMNSLKPEDTAVSYCAAQPGTASYAGDGDSWGQGTQVTVSS	low polyreactivity

— the nanobody polyreactivity screen of Harvey et al. (2022)
